Data reported in the supplement of paper PMC10201428.
± gives the standard deviation of the averaged measurements.

Legend:
[1] = tested on: VchCAST RNA-guided transposition machinery (E. coli BL21(DE3) host, lacZ target); test: relative integration efficiency (T-RL orientation) vs wild-type transposon end (log2 (normalized fold change)); transposon end mutated: right end (5 bp flank + 75 bp right end); higher = more efficient transposition
How it was run: (§1)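 Barcoded pools of 1549 left-end or 1849 right-end transposon variants were cloned into a pUC57 mini-transposon donor. Each pool was co-transformed with a T7-driven effector plasmid (CRISPR array, tniQ-cas8-cas7-cas6, tnsA-tnsB-tnsC) into E. coli BL21(DE3) and plated with 0.1 mM IPTG at 37°C for 18 h. Input plasmids and genomic integration junctions were PCR-amplified and Illumina-sequenced, with two biological output replicates and four wild-type barcodes as reference. Relative integration efficiency is output/input barcode abundance fold change, normalised to wild-type barcodes and log-transformed.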

[2] = tested on: VchCAST RNA-guided transposition machinery (E. coli BL21(DE3) host, lacZ target); test: relative integration efficiency (T-LR orientation) vs wild-type transposon end (log2 (normalized fold change)); transposon end mutated: right end (5 bp flank + 75 bp right end); higher = more efficient transposition
How it was run: as §1

Sequence | relative integration efficiency (log2) [1] | relative integration efficiency (log2) [2]
ACATTTGTTGATACAACCCGAAAATGATAATTACACCCATAAATTGATAATTATCACACCCATAAATTGATATTGCCTCTGATCATAGTCAGACCAACATTGCTACGACCCGTATTCGCACCGACAC | -3.8 ± 0.095 | -3.67 ± 0.84
ACATTTGTTGATACAACCCGCCAATGATAATTACACCCATAAATTGATAATTATCACACCCATAAATTGATATTGCCTCTGATCATAGTCAGACCAACATTGCTACGACCCGTATTCGCACCGACAC | -4.28 ± 0.2 | -3.85 ± 0.3
ACATTTGTTGATACAACCCTAAAATGATAATTACACCCATAAATGGATAATTATCACACCCAATTTAACTATAACGCTCTGATCATAGTCAGACCAACATTGCTACGACCCGTATTCGCACCGACAC | -3.06 ± 0.29 | -0.403 ± 0.044
ACATTTGTTGATACAACCCTAAAATGATAATTACACCCATAAATGGATAATTATCACCCCCAATTTAACTATAACGCTCTGATCATAGTCAGACCAACATTGCTACGACCCGTATTCGCACCGACAC | -3.24 ± 0.23 | -0.791 ± 0.11
ACATTTGTTGATACAACCCTAAAATGATAATTACACCCATAAATGGATCATTATCACACCCAATTTAACTATAACGCTCTGATCATAGTCAGACCAACATTGCTACGACCCGTATTCGCACCGACAC | -3.87 ± 0.32 | -1.52 ± 0.39
ACATTTGTTGATACAACCCTAAAATGATAATTACACCCATAAATGGATCATTATCACCCCCAATTTAACTATAACGCTCTGATCATAGTCAGACCAACATTGCTACGACCCGTATTCGCACCGACAC | -4.22 ± 0.58 | -1.44 ± 0.036
ACATTTGTTGATACAACCCTAAAATGATAATTACACCCATAAATTCATAATTATCACACCCAATTTAACTATAACGCTCTGATCATAGTCAGACCAACATTGCTACGACCCGTATTCGCACCGACAC | -4.59 ± 0.4 | -1.75 ± 0.15
ACATTTGTTGATACAACCCTAAAATGATAATTACACCCATAAATTCATAATTATCACCCCCAATTTAACTATAACGCTCTGATCATAGTCAGACCAACATTGCTACGACCCGTATTCGCACCGACAC | -4.15 ± 0.4 | -1.67 ± 0.083
ACATTTGTTGATACAACCCTAAAATGATAATTACACCCATAAATTCATCATTATCACACCCAATTTAACTATAACGCTCTGATCATAGTCAGACCAACATTGCTACGACCCGTATTCGCACCGACAC | -4.59 ± 0.18 | -1.57 ± 0.23
ACATTTGTTGATACAACCCTAAAATGATAATTACACCCATAAATTCATCATTATCACCCCCAATTTAACTATAACGCTCTGATCATAGTCAGACCAACATTGCTACGACCCGTATTCGCACCGACAC | -4.72 ± 0.23 | -1.49 ± 0.085
ACATTTGTTGATACAACCCTAAAATGATAATTACACCCATAAATTGATAATTATCACCCCCAATTTAACTATAACGCTCTGATCATAGTCAGACCAACATTGCTACGACCCGTATTCGCACCGACAC | -1.61 ± 0.24 | 1.5 ± 0.089
ACATTTGTTGATACAACCCTAAAATGATAATTACACCCATAAATTGATCATTATCACACCCAATTTAACTATAACGCTCTGATCATAGTCAGACCAACATTGCTACGACCCGTATTCGCACCGACAC | -3 ± 0.31 | 0.357 ± 0.061
ACATTTGTTGATACAACCCTAAAATGATAATTACACCCATAAATTGATCATTATCACCCCCAATTTAACTATAACGCTCTGATCATAGTCAGACCAACATTGCTACGACCCGTATTCGCACCGACAC | -2.81 ± 0.49 | 0.404 ± 0.19
ACATTTGTTGATACAACCCTAAAATGATAATTACACCCCTAAATTGATAATTATCACACCCCTAAATTGATATTGCCTCTGATCATAGTCAGACCAACATTGCTACGACCCGTATTCGCACCGACAC | -4.68 ± 0.11 | -3.01 ± 0.1
ACATTTGTTGATACAACCTAAAAATGATAATTACACCCATAAATTGATAATTATCACACCCATAAATTGATATTGCCTCTGATCATAGTCAGACCAACATTGCTACGACCCGTATTCGCACCGACAC | -0.616 ± 0.0067 | -0.819 ± 0.32
